Test results reported in paper PMC12202928, “Bidirectional interdomain crosstalk in a Porphyromonas gingivalis chimeric enzyme coordinates catalytic synergy for aromatic amino acid biosynthesis” (Frontiers in Microbiology, 2025).

B1: PgiDAH7PS-CM (bifunctional 3-deoxy-D-arabino heptulosonate-7-phosphate synthase / chorismate mutase from Porphyromonas gingivalis) (enzyme, UniProt B2RJM7 1-366, looked up)
chain: MKYCDFTPLPLPSEPNTTVIAGPCSAESEEQIMTTARALRDEAGIRIFRAGLWKPRTLPGCFEGVGETGLPWLVRVQDELDMLATTEVATREHVEQAMQAGIRILWLGARTTSNPFAVQEIADTIGKDESVIVLVKNPISPDLDLWTGALERLRQSGVRQIGAIHRGFSTYATKTFRNPPHWQIPFDLKRRFPSLTILCDPSHITGQRDRIESVSQQAMEMNFDGLIIESHCCPDKALSDASQQITPTVLAQILRRLRIPRRQSEKQDEELISWRMQIDQIDESIVELLARRMQVAYEIGLFKKEHNLAVVQNLRYEQLQRNRARTAALLGLDETFISELFSRIHEESVRLQTLAPQKPHTDDCIS
notes: PgiDAH7PS-CM, Porphyromonas gingivalis, UniProt B2RJM7, 366 amino acid residues; DAH7PS domain 17-253, 11-residue linker, CM domain 265-356; codon-optimised synthetic gene in pET28a; Homodimer by analytical SEC (68 ± 6 kDa against a theoretical monomer of 42 kDa); also called full-length PgiDAH7PS-CM; PgiDAH7PS^WT; source: E. coli BL21 (DE3), purified (HisTrap HP, TEV digestion, second HisTrap); …
B2: PgiCM (separated CM domain of PgiDAH7PS-CM) (domain or fragment, Porphyromonas gingivalis, UniProt B2RJM7 259-366, looked up)
chain: IPRRQSEKQDEELISWRMQIDQIDESIVELLARRMQVAYEIGLFKKEHNLAVVQNLRYEQLQRNRARTAALLGLDETFISELFSRIHEESVRLQTLAPQKPHTDDCIS
notes: C-terminal part of PgiDAH7PS-CM, Porphyromonas gingivalis, UniProt B2RJM7, split between R258 and I259; theoretical monomer MW 13 kDa; source: E. coli BL21 (DE3), purified (HisTrap HP, TEV digestion, second HisTrap); not shown: His6, N-terminal, cleaved

Target: the molecule itself
Experiment: SEC; analytical SEC on ENrich SEC 650 calibrated with mass standards; 50 mM BTP pH 7.4, 4°C, protein loaded at 1 mg/mL, 0.2 mL/min; apparent mass compared with theoretical monomer mass

Row | Protein | stoichiometry N
1 | B1 | 2
2 | B2 | 2
